Substrate: Nc1ncnc2c1ncn2[C@@H]1O[C@H](COP(=O)(O)O)[C@@H](OP(=O)(O)O)[C@H]1O
Assay: purified protein
Type: biochemical, Homo sapiens
Conditions: varied pNPS, no added alcohol, 50 mM phosphate pH 6.2, 37 °C

B1: SULT1A1 (human phenol sulfotransferase, human sulfotransferase 1A1) (Homo sapiens) (protein)
chain: MELIQDTSRPPLEYVKGVPLIKYFAEALGPLQSFQARPDDLLISTYPKSGTTWVSQILDMIYQGGDLEKCHRAPIFMRVPFLEFKAPGIPSGMETLKDTPAPRLLKTHLPLALLPQTLLDQKVKVVYVARNAKDVAVSYYHFYHMAKVHPEPGTWDSFLEKFMVGEVSYGSWYQHVQEWWELSRTHPVLYLFYEDMKENPKREIQKILEFVGRSLPEETVDFVVQHTSFKEMKKNPMTNYTTVPQEFMDHSISPFMRKGMAGDWKTTFTVAQNERFDADYAEKMAGCSLSFRSEL
Work on B1 yielded a Km of 34 ± 6 µM, a kcat of 0.000633 ± 0.000117 s⁻¹ and a kcat/Km of 18.3 ± 3.33 M⁻¹ s⁻¹.

Source: paper PMC3049928
